Test results: US20240261333A1, “NOVEL TARGETS FOR ENHANCING ANTI-TUMOR IMMUNITY” (THE BROAD INSTITUTE, INC., priority 2021, published 2024)

Assays:
ARG1 = ARG1 (UniProt P05089); test: co-IP, IgG control, C-FLAG B3GNT2 cell lysate, mass spectrometry
DDX20 = DDX20 (UniProt Q9UHI6); test: as above
MTDH = MTDH (UniProt Q86UE4); test: as above
RPL35 = RPL35 (UniProt P42766); test: as above
RPL5 = RPL5 (UniProt P46777); test: as above
TMEM59 = TMEM59 (UniProt Q9BXS4); test: as above
ATXN2 (human) = ATXN2 (human) (UniProt Q99700); test: co-IP, IgG control, lysate of cells with N-FLAG B3GNT2; mass spectrometry
DNAJC3 (human) = DNAJC3 (human) (UniProt Q13217); test: as above
Chain of DNAJC3 (human) (Q13217 32-504 limits assumed): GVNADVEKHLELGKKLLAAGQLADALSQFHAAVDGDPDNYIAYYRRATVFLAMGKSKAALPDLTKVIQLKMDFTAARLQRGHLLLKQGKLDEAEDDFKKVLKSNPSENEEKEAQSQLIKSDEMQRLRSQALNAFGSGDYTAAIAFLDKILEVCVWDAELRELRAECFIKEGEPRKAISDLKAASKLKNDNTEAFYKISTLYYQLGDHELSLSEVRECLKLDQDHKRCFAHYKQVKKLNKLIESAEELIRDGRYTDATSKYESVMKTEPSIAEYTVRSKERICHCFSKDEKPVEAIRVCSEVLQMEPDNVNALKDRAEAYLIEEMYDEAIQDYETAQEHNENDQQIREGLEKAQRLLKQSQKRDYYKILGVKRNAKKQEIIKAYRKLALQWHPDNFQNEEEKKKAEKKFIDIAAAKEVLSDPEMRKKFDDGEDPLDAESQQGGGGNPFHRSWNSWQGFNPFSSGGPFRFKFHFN

EIF5B (human) = EIF5B (human) (UniProt O60841); test: as above
Chain of EIF5B (human) (O60841 whole entry): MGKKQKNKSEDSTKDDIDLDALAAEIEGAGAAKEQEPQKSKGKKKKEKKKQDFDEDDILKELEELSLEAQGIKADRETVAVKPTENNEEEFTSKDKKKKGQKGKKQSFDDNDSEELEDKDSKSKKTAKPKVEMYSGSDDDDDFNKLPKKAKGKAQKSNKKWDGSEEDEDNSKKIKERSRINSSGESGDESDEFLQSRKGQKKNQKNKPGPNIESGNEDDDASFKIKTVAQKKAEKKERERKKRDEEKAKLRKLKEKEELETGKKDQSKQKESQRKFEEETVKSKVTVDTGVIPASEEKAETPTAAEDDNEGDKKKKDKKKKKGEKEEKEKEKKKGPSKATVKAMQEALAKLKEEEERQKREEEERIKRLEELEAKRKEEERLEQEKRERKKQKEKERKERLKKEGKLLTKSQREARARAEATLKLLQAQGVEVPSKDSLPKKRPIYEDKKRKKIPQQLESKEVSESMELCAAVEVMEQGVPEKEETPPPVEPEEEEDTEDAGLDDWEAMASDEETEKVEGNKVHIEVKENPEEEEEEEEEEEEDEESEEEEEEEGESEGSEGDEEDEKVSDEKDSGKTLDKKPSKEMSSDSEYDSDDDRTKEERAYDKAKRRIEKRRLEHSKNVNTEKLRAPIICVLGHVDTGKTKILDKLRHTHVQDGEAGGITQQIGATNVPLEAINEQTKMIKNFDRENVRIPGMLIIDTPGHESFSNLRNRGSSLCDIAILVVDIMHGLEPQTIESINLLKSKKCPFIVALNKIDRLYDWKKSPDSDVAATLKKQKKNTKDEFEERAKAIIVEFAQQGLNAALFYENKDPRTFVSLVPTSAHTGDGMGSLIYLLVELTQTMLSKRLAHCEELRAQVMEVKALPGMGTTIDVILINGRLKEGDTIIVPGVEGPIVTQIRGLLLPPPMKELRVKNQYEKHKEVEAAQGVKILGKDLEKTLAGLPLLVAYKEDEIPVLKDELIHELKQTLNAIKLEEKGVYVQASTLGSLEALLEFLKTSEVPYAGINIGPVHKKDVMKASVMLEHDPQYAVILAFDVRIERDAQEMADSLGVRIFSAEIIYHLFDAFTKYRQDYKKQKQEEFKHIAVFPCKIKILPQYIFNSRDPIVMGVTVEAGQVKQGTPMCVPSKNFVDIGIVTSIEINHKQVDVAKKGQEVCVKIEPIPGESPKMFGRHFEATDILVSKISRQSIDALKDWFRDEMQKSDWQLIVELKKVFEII

FAU (human) = FAU (human) (UniProt P62861); test: as above
GGCT (human) = GGCT (human) (UniProt O75223); test: as above
Chain of GGCT (human) (O75223 whole entry): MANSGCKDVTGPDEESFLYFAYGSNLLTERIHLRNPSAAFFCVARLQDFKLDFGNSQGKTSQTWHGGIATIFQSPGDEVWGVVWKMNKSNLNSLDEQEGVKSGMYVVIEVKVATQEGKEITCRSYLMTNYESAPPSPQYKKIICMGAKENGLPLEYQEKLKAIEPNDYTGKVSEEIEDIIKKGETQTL

HADHB (human) = HADHB (human) (UniProt P55084); test: as above
HNRNPK (human) = HNRNPK (human) (UniProt P61978); test: as above
Chain of HNRNPK (human) (P61978 other isoform, or with tags, fused parts or gaps limits assumed): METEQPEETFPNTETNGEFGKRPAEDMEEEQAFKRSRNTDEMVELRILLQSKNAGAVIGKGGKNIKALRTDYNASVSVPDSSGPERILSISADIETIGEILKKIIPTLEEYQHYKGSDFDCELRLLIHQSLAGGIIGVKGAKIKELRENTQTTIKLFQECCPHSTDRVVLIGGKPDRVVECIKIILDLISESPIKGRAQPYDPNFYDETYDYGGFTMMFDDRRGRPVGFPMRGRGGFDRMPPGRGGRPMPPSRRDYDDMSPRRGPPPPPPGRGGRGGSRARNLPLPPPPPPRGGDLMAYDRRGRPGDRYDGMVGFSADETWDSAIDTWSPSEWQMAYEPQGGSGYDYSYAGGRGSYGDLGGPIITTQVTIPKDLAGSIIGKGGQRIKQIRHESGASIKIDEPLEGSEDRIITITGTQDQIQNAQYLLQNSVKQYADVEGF

HSPA8 (human) = HSPA8 (human) (UniProt P11142); test: as above
Chain of HSPA8 (human) (P11142 2-646 limits assumed): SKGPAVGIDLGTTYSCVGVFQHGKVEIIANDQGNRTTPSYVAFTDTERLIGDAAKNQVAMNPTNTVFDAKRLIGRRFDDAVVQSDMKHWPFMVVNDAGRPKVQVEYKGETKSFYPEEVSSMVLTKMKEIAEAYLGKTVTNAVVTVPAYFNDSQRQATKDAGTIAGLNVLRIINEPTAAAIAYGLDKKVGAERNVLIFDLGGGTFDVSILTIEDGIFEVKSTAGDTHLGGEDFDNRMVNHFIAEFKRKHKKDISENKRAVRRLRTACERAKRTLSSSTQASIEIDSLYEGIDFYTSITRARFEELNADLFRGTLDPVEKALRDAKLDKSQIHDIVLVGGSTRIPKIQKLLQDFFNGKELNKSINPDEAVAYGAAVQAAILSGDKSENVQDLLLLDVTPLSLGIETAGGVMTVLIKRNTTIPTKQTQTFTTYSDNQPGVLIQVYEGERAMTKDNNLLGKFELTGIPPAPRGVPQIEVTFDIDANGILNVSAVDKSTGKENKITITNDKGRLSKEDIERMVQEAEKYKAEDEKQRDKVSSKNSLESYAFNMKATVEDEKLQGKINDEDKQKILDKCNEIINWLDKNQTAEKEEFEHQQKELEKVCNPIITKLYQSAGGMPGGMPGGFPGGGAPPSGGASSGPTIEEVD

HUWE1 (human) = HUWE1 (human) (UniProt Q7Z6Z7); test: as above
KRT4 (human) = KRT4 (human) (UniProt P19013); test: as above
Chain of KRT4 (human) (P19013 whole entry): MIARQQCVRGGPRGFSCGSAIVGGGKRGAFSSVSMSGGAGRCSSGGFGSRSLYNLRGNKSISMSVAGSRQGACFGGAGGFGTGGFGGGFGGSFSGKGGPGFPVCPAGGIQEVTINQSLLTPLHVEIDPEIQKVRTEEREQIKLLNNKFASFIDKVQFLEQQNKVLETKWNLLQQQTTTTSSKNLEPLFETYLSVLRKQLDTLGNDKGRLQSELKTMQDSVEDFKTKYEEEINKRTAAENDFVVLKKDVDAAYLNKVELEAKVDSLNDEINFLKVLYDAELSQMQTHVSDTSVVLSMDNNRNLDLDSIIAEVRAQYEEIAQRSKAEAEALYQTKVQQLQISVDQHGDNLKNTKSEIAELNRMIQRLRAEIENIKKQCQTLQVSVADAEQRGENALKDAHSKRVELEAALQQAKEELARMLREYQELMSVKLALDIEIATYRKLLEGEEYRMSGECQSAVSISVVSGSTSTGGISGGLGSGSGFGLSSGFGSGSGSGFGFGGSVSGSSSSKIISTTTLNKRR

KRT6B (human) = KRT6B (human) (UniProt P04259); test: as above
Chain of KRT6B (human) (P04259 2-564 limits assumed): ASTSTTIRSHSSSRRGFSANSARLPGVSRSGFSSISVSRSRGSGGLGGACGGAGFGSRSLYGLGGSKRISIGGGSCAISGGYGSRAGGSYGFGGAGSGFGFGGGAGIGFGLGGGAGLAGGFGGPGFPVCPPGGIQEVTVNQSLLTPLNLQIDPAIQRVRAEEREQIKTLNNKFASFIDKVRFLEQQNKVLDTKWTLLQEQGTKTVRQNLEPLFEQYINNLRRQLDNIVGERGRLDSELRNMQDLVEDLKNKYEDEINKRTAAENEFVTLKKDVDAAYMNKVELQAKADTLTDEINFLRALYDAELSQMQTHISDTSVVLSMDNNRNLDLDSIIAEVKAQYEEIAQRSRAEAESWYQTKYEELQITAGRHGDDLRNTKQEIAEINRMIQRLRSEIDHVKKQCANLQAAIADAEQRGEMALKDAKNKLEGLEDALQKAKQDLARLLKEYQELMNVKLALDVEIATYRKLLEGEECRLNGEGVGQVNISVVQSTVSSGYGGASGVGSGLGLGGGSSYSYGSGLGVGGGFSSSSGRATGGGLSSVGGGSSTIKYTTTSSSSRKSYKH

MOV10 (human) = molecular target: T1, MOV10 (human) (UniProt Q9HCE1); test: as above
T1 sequence (looked up): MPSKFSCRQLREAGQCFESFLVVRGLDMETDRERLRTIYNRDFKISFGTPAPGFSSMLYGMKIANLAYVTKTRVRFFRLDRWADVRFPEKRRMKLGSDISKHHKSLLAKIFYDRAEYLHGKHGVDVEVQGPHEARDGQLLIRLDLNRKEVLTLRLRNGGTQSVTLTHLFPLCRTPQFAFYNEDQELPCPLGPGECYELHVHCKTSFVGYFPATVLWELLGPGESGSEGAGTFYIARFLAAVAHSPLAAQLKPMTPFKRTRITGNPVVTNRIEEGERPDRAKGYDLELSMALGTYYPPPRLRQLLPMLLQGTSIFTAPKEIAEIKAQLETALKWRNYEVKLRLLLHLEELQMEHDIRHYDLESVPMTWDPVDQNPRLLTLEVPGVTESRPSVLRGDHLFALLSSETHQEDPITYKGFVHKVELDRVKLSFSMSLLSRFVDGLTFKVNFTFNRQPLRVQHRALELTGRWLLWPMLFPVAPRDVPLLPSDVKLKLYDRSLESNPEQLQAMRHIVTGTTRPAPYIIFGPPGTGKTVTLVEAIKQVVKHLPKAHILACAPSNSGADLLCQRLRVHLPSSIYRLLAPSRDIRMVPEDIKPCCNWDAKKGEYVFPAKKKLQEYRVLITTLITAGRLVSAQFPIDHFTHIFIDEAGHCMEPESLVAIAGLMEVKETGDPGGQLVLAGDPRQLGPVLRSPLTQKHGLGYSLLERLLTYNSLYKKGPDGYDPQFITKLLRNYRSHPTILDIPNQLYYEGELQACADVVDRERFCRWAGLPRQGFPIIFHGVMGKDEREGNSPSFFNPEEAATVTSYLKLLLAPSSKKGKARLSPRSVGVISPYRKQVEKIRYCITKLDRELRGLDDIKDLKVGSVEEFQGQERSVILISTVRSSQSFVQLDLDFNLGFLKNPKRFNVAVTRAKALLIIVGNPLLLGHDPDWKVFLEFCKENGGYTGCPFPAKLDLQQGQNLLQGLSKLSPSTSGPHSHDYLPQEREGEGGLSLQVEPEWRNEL

MYH11 (human) = MYH11 (human) (UniProt P35749); test: as above
NUFIP2 (human) = NUFIP2 (human) (UniProt Q7Z417); test: as above
PRBP1 (human) = PRBP1 (human) (UniProt P26599); test: as above
PRRC2A (human) = PRRC2A (human) (UniProt P48634); test: as above
PUM1 (human) = PUM1 (human) (UniProt Q14671); test: as above
RPL13 (human) = RPL13 (human) (UniProt P26373); test: as above
SAMM50 (human) = SAMM50 (human) (UniProt Q9Y512); test: as above
SPTAN1 (human) = SPTAN1 (human) (UniProt Q13813); test: as above
UBAP2L (human) = UBAP2L (human) (UniProt Q14157); test: as above

Chain of ARG1 (P05089 whole entry): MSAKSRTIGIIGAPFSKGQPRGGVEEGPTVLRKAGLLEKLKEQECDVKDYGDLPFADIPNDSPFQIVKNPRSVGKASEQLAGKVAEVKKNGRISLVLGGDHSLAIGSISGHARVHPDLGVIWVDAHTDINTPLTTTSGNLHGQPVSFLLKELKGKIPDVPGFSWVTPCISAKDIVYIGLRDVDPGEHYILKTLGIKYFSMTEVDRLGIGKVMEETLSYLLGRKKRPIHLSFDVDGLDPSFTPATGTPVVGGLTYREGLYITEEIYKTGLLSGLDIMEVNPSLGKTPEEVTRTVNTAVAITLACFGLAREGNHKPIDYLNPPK
Chain of TMEM59 (Q9BXS4 36-323 limits assumed): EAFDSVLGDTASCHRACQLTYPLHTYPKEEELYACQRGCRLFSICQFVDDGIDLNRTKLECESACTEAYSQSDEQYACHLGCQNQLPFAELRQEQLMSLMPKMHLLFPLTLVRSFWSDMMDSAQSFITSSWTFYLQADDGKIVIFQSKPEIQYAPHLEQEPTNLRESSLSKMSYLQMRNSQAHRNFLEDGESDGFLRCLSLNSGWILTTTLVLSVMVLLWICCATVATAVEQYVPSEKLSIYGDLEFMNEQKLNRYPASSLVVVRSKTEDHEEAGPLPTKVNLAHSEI

In the case of “IgG control (Millipore Sigma 12-371) (antibody)”, the co-IP mass spectrometry count (ARG1) is reported as 4, the co-IP mass spectrometry count (DDX20) is reported as 0 and the co-IP mass spectrometry count (MTDH) is reported as 0. For the same substance, the co-IP mass spectrometry count (RPL35) was 0, the co-IP mass spectrometry count (RPL5) was 0 and the co-IP mass spectrometry count (TMEM59) was 0. The co-IP mass spectrometry count (ATXN2 (human)) was 3, the co-IP mass spectrometry count (DNAJC3 (human)) was 0 and the co-IP mass spectrometry count (EIF5B (human)) was 0. For the same substance, the co-IP mass spectrometry count (FAU (human)) was 6, the co-IP mass spectrometry count (GGCT (human)) was 0 and the co-IP mass spectrometry count (HADHB (human)) was 0. The co-IP mass spectrometry count (HNRNPK (human)) was 8, the co-IP mass spectrometry count (HSPA8 (human)) was 16 and the co-IP mass spectrometry count (HUWE1 (human)) was 0. The co-IP mass spectrometry count (KRT4 (human)) was 21, the co-IP mass spectrometry count (KRT6B (human)) was 316 and the co-IP mass spectrometry count (MOV10 (human)) was 3. For the same substance, the co-IP mass spectrometry count (MYH11 (human)) was 3, the co-IP mass spectrometry count (NUFIP2 (human)) was 3 and the co-IP mass spectrometry count (PRBP1 (human)) was 7. It also gave a co-IP mass spectrometry count (PRRC2A (human)) of 3, a co-IP mass spectrometry count (PUM1 (human)) of 0 and a co-IP mass spectrometry count (RPL13 (human)) of 6. It also gave a co-IP mass spectrometry count (SAMM50 (human)) of 0, a co-IP mass spectrometry count (SPTAN1 (human)) of 0 and a co-IP mass spectrometry count (UBAP2L (human)) of 20.
